This is an account of results in US8501695B2, “Tissue kallikrein for the treatment of diseases associated with amyloid protein” (DiaMedica, Inc., priority 2007, dated 2013).

This assay deals with rat mixed cortical cultures (RMCC). Put plainly: Aβ1-42 toxicity in rat mixed cortical cultures, neuronal survival (NeuN cell count). The assay is classed as cell-based. On the procedure: Whether pre-treatment with tissue kallikrein protects rat mixed cortical cultures against exposure to human amyloid beta peptide (Aβ1-42) was investigated. Cell death was analyzed by LDH-release, an indication of necrosis, and cell viability was also analyzed by neuronal cell count. First (Study Arm A), tissue kallikrein was added to the cells only prior to the Aβ1-42 insult (at −24 h and at −30 min). Whereas in the second part (Study Arm B), tissue kallikrein was added to the cells prior to (−30 min) and also at +24 h after the Aβ1-42 insult. At the +24 h time point, cell culture media were not changed (tissue kallikrein or corresponding amount of vehicle was added to the wells), whereas at −24 h and −30 min time point cell culture media were changed.
[…] Cell Culture. Mixed cortical cultures were prepared from E18 Wistar rat embryos (National Animal Center, Kuopio, Finland). The cortices were dissected out, and the tissue cut to small pieces. The cells were separated by 15-min incubation with DNase and papain. The cells were collected by centrifugation (1500 rpm, 5 min). The tissue was triturated with a pipette and the cells were plated on poly-L-lysine-coated 48-well plates, 300,000 cells/cm^2, in MEM (2 g/L glucose) supplemented with 2 mM glutamine, 0.1 μg/ml gentamicin, 10% heat-inactivated fetal bovine serum (FBS-HI) and 10% heat-inactivated horse serum (HS-HI). After 3-4 h, the media were changed to MEM (2 g/L glucose) supplemented with 2 mM glutamine, 0.1 μg/ml gentamicin, 5% HS-HI. After three days in vitro, media containing MEM (2 g/L glucose) supplemented with glutamine, gentamicin, and 5% of both sera were changed to the cells. On day 6 in vitro, the unwanted cell division was inhibited by adding cytosine arabinoside (10 μM final concentration) for 24 h. The cultures were refed with MEM (2 g/L glucose) supplemented with glutamine, gentamicin, and 5% HS-HI before experiments.
Aβ1-42 Exposure. Tissue kallikrein (SEQ ID NO:1) was dissolved and further diluted in MEM supplemented with glucose, glutamine, gentamicin, and 5% HS-HI. As a control for total neuronal death, 300 μM N-methyl-D-aspartic acid (NMDA) for 48 h was used, and 10 μM Aβ1-42 for 48 h was used to induce approximately 30-50% cell death. Wells treated with media only served as 0-control. Tissue kallikrein or vehicle was pipetted to the cells −24 h and −30 min before adding 10 μM Aβ1-42 (final concentration). Tissue kallikrein or vehicle was again pipetted to the cells at +24 h after exposure.
Immunocytochemistry for Neuronal Survival. For neuronal counts, the cultures were fixed with 4% paraformaldehyde in 0.01 M PBS for 30 min and washed twice with PBS. The fixed cells were first permeabilized, and non-specific binding blocked by 30 min incubation with blocking buffer containing 1% bovine serum albumin and 0.3% Triton® X-100 in PBS. Anti-neuronal nuclei antibody (anti-NeuN, dilution 1:500, Chemicon, Temecula, Calif.) was used as the primary antibody. The cells were incubated with the primary antibody for 48 h, followed by incubation with a biotinylated secondary antibody (1:200, Vector Labs) for 2 h, and the avidin-biotin-peroxidase complex (ABC-reagent, 1:200, Vector ABC Elite Kit, Vector Labs) for 2 h. The positive cells were visualized using Ni-enhanced DAB as a substrate (DAB Substrate kit, Vector Labs). The NeuN immunopositive neurons were counted using a light microscope. Altogether, 2 fields of each well were counted. The results are shown as percent viable neurons.
Data Analysis. The number of wells per compound concentration used was 6 (n=6). […] Statistical analysis was performed using StatsDirect statistical software. The values were analyzed by one-way ANOVA followed by Dunnet's test (comparison to the vehicle-treated group). Results are presented as mean±standard deviation (SD) and differences are considered to be statistically significant at the P<0.05 level.

B1: tissue kallikrein: serine protease that cleaves kininogen into kallidin; polypeptide SEQ ID NO:1 (Sus scrofa kallikrein 1), KLK1 from Sigma (protein, listed as Sus scrofa)
chain: MWSLVMRLALSLAGTGAAPPIQSRIIGGRECEKDSHPWQVAIYHYSSFQCGGVLVDPKWVLTAAHCKNDNYQVWLGRHNLFENEVTAQFFGVTADFPHPGFNLSLLKNHTKADGKDYSHDLMLLRLQSPAKITDAVKVLELPTQEPELGSTCQASGWGSIEPGPDDFEFPDEIQCVELTLLQNTFCADAHPDKVTESMLCAGYLPGGKDTCMGDSGGPLICNGMWQGITSWGHTPCGSANKPSIYTKLIFYLDWINDTITENP
modifications: 125I label in one form
With B1, the “cell counts (survival) after Aβ1-42 insult” value is “provided protection” (Study Arm A, 1.0 μg/ml); “protection provided by 10 μg/ml was statistically significant” (Study Arm A, 10 μg/ml); “did not affect cell counts” (Study Arm A, lower concentrations); “Increases in cell counts” (Study Arm B, 1.0 μg/ml); “protection provided by 10 μg/ml was statistically significant” (Study Arm B, 10 μg/ml); “did not affect cell counts” (Study Arm B, lower concentrations).
